{"source": "the Human Domainome abundance scans (Beltran et al. 2025)", "parents": {"B1": {"name": "Peroxisome proliferator-activated receptor delta, residues 71 to 145; numbered along this chain, Q03181 (parent)", "chain": "NMECRVCGDKASGFHYGVHACEGCKGFFRRTIRMKLEYEKCERSCKIQKKNRNKCQYCRFQKCLALGMSHNAIRF"}}, "note": "± gives the uncertainty stated by the source."}
{"variants_of": "B1", "experiment": "abundance fitness (aPCA) (normalised: wild type 0, dead -1); higher = more abundant; growth selection in yeast, the domain comes from the species named", "conditions": "Homo sapiens"}
{"variant": "C21L", "abundance fitness": "-0.942 ± 0.11"}
{"variant": "C21I", "abundance fitness": "-0.608 ± 0.17"}
{"variant": "C21S", "abundance fitness": "-0.867 ± 0.094"}
{"variant": "C21D", "abundance fitness": "-0.875 ± 0.37"}
{"variant": "C21T", "abundance fitness": "-0.83 ± 0.1"}
{"variant": "C21R", "abundance fitness": "-0.865 ± 0.09"}
{"variant": "C21Q", "abundance fitness": "-0.763 ± 0.13"}
{"variant": "C21K", "abundance fitness": "-0.597 ± 0.12"}
{"variant": "C21G", "abundance fitness": "-0.633 ± 0.067"}
{"variant": "C21A", "abundance fitness": "-0.705 ± 0.099"}
{"variant": "C21M", "abundance fitness": "-0.912 ± 0.26"}
{"variant": "C21P", "abundance fitness": "-1.14 ± 0.26"}
{"variant": "C21E", "abundance fitness": "-0.847 ± 0.15"}
{"variant": "C21Y", "abundance fitness": "-0.599 ± 0.15"}
{"variant": "C21H", "abundance fitness": "-0.714 ± 0.17"}
{"variant": "C21W", "abundance fitness": "-0.881 ± 0.14"}
{"variant": "G23Q", "abundance fitness": "-0.009 ± 0.049"}
{"variant": "G23N", "abundance fitness": "0.109 ± 0.078"}
{"variant": "G23L", "abundance fitness": "-0.061 ± 0.04"}
{"variant": "G23K", "abundance fitness": "-0.034 ± 0.062"}
{"variant": "G23D", "abundance fitness": "0.192 ± 0.054"}
{"variant": "G23I", "abundance fitness": "-0.244 ± 0.098"}
{"variant": "G23F", "abundance fitness": "-0.001 ± 0.084"}
{"variant": "G23W", "abundance fitness": "0.084 ± 0.045"}
{"variant": "G23C", "abundance fitness": "0.071 ± 0.053"}
{"variant": "G23R", "abundance fitness": "-0.179 ± 0.036"}
{"variant": "G23H", "abundance fitness": "0.26 ± 0.088"}
{"variant": "G23E", "abundance fitness": "0.17 ± 0.04"}
{"variant": "G23S", "abundance fitness": "0.146 ± 0.034"}
{"variant": "G23V", "abundance fitness": "-0.325 ± 0.052"}
{"variant": "G23M", "abundance fitness": "0.009 ± 0.056"}
{"variant": "G23T", "abundance fitness": "-0.203 ± 0.055"}
{"variant": "G23Y", "abundance fitness": "0.021 ± 0.072"}
{"variant": "G26P", "abundance fitness": "-1.02 ± 0.18"}
{"variant": "G26F", "abundance fitness": "-0.125 ± 0.083"}
{"variant": "G26T", "abundance fitness": "0.039 ± 0.047"}
{"variant": "G26A", "abundance fitness": "0.068 ± 0.04"}
{"variant": "G26N", "abundance fitness": "0.055 ± 0.067"}
{"variant": "G26R", "abundance fitness": "-0.099 ± 0.036"}
{"variant": "G26M", "abundance fitness": "-0.09 ± 0.061"}
{"variant": "G26E", "abundance fitness": "0.127 ± 0.046"}
{"variant": "G26D", "abundance fitness": "0.114 ± 0.056"}
{"variant": "G26C", "abundance fitness": "-0.139 ± 0.058"}
{"variant": "G26H", "abundance fitness": "0.221 ± 0.066"}
{"variant": "G26I", "abundance fitness": "0.025 ± 0.099"}
{"variant": "C24R", "abundance fitness": "-0.823 ± 0.091"}
{"variant": "C24M", "abundance fitness": "-0.648 ± 0.14"}
{"variant": "C24K", "abundance fitness": "-0.6 ± 0.14"}
{"variant": "C24F", "abundance fitness": "-0.364 ± 0.17"}
{"variant": "C24V", "abundance fitness": "-1.06 ± 0.17"}
{"variant": "C24L", "abundance fitness": "-0.753 ± 0.1"}
{"variant": "C24Q", "abundance fitness": "-0.912 ± 0.2"}
{"variant": "C24Y", "abundance fitness": "-0.747 ± 0.22"}
{"variant": "C24I", "abundance fitness": "-0.464 ± 0.13"}
{"variant": "C24D", "abundance fitness": "-0.306 ± 0.11"}
{"variant": "C24T", "abundance fitness": "-0.723 ± 0.11"}
{"variant": "C24A", "abundance fitness": "-0.626 ± 0.13"}
{"variant": "C24E", "abundance fitness": "-0.924 ± 0.18"}
{"variant": "C24N", "abundance fitness": "-0.648 ± 0.3"}
{"variant": "C24H", "abundance fitness": "-0.15 ± 0.16"}
{"variant": "C24S", "abundance fitness": "-0.809 ± 0.098"}
{"variant": "E22C", "abundance fitness": "-0.258 ± 0.076"}
{"variant": "E22W", "abundance fitness": "-0.425 ± 0.095"}
{"variant": "E22G", "abundance fitness": "-0.341 ± 0.05"}
{"variant": "E22M", "abundance fitness": "-0.205 ± 0.062"}
{"variant": "E22L", "abundance fitness": "-0.508 ± 0.056"}
{"variant": "E22S", "abundance fitness": "-0.405 ± 0.052"}
{"variant": "E22P", "abundance fitness": "-0.294 ± 0.056"}
{"variant": "E22I", "abundance fitness": "-0.176 ± 0.087"}
{"variant": "E22A", "abundance fitness": "-0.256 ± 0.045"}
{"variant": "E22V", "abundance fitness": "-0.325 ± 0.055"}
{"variant": "E22N", "abundance fitness": "-0.207 ± 0.09"}
{"variant": "E22D", "abundance fitness": "-0.148 ± 0.074"}
{"variant": "E22F", "abundance fitness": "-0.343 ± 0.091"}
{"variant": "E22H", "abundance fitness": "-0.385 ± 0.099"}
{"variant": "E22Q", "abundance fitness": "-0.332 ± 0.079"}
{"variant": "E22K", "abundance fitness": "-0.297 ± 0.065"}
{"variant": "E22Y", "abundance fitness": "-0.389 ± 0.099"}
{"variant": "E22R", "abundance fitness": "-0.293 ± 0.041"}
{"variant": "E22T", "abundance fitness": "-0.282 ± 0.056"}
{"variant": "V18S", "abundance fitness": "-0.505 ± 0.066"}
{"variant": "V18I", "abundance fitness": "-0.051 ± 0.074"}
{"variant": "V18Q", "abundance fitness": "-0.39 ± 0.082"}
{"variant": "V18E", "abundance fitness": "-0.398 ± 0.063"}
{"variant": "V18Y", "abundance fitness": "-0.652 ± 0.14"}
{"variant": "V18W", "abundance fitness": "-0.721 ± 0.11"}
{"variant": "V18P", "abundance fitness": "-0.492 ± 0.075"}
{"variant": "V18R", "abundance fitness": "-0.671 ± 0.067"}
{"variant": "V18D", "abundance fitness": "-0.396 ± 0.082"}
{"variant": "V18F", "abundance fitness": "-0.527 ± 0.16"}
{"variant": "V18A", "abundance fitness": "-0.104 ± 0.044"}
{"variant": "V18L", "abundance fitness": "-0.258 ± 0.044"}
{"variant": "V18N", "abundance fitness": "-0.372 ± 0.14"}
{"variant": "V18C", "abundance fitness": "-0.145 ± 0.066"}
{"variant": "V18H", "abundance fitness": "-0.764 ± 0.27"}
{"variant": "Y16W", "abundance fitness": "-0.27 ± 0.062"}
{"variant": "K25M", "abundance fitness": "0.188 ± 0.042"}
{"variant": "K25I", "abundance fitness": "0.061 ± 0.063"}
{"variant": "K25T", "abundance fitness": "0.094 ± 0.041"}
{"variant": "K25S", "abundance fitness": "0.105 ± 0.038"}
{"variant": "K25A", "abundance fitness": "0.122 ± 0.036"}
{"variant": "K25Y", "abundance fitness": "0.114 ± 0.065"}
{"variant": "K25E", "abundance fitness": "0.142 ± 0.04"}
{"variant": "K25P", "abundance fitness": "-0.878 ± 0.13"}
{"variant": "K25R", "abundance fitness": "-0.003 ± 0.033"}
{"variant": "K25Q", "abundance fitness": "-0.036 ± 0.049"}
{"variant": "K25L", "abundance fitness": "0.112 ± 0.033"}
{"variant": "K25D", "abundance fitness": "-0.048 ± 0.056"}
{"variant": "K25W", "abundance fitness": "0.01 ± 0.043"}
{"variant": "K25F", "abundance fitness": "-0.108 ± 0.081"}
{"variant": "K25C", "abundance fitness": "-0.014 ± 0.057"}
{"variant": "K25G", "abundance fitness": "0.178 ± 0.031"}
{"variant": "K25H", "abundance fitness": "-0.19 ± 0.089"}
{"variant": "K25V", "abundance fitness": "0.109 ± 0.037"}
{"variant": "G17T", "abundance fitness": "-0.567 ± 0.077"}
{"variant": "G17R", "abundance fitness": "-0.777 ± 0.076"}
{"variant": "G17D", "abundance fitness": "-0.15 ± 0.058"}
{"variant": "G17S", "abundance fitness": "-0.448 ± 0.056"}
{"variant": "G17V", "abundance fitness": "-0.647 ± 0.078"}
{"variant": "G17F", "abundance fitness": "-0.661 ± 0.16"}
{"variant": "G17L", "abundance fitness": "-0.692 ± 0.074"}
{"variant": "G17W", "abundance fitness": "-0.918 ± 0.13"}
{"variant": "G17N", "abundance fitness": "-0.238 ± 0.1"}
{"variant": "G17M", "abundance fitness": "-0.158 ± 0.076"}
{"variant": "G17H", "abundance fitness": "-0.682 ± 0.17"}
{"variant": "G17I", "abundance fitness": "-0.813 ± 0.19"}
{"variant": "G17E", "abundance fitness": "-0.27 ± 0.061"}
{"variant": "G17K", "abundance fitness": "-0.861 ± 0.17"}
{"variant": "G17Q", "abundance fitness": "-0.248 ± 0.061"}
{"variant": "G17P", "abundance fitness": "-0.527 ± 0.067"}
{"variant": "G17A", "abundance fitness": "-0.465 ± 0.062"}
{"variant": "A20N", "abundance fitness": "-0.222 ± 0.17"}
{"variant": "A20I", "abundance fitness": "-0.023 ± 0.11"}
{"variant": "A20T", "abundance fitness": "-0.057 ± 0.05"}
{"variant": "A20H", "abundance fitness": "-0.594 ± 0.22"}
{"variant": "A20G", "abundance fitness": "-0.847 ± 0.11"}
{"variant": "A20M", "abundance fitness": "-0.456 ± 0.13"}
{"variant": "A20E", "abundance fitness": "-0.886 ± 0.16"}
{"variant": "A20D", "abundance fitness": "-0.99 ± 0.35"}
{"variant": "A20S", "abundance fitness": "-0.168 ± 0.05"}
{"variant": "A20F", "abundance fitness": "0.145 ± 0.13"}
{"variant": "A20L", "abundance fitness": "-0.106 ± 0.051"}
{"variant": "A20K", "abundance fitness": "-0.771 ± 0.24"}
{"variant": "A20C", "abundance fitness": "0.139 ± 0.06"}
{"variant": "A20R", "abundance fitness": "-0.707 ± 0.11"}
{"variant": "A20P", "abundance fitness": "-0.792 ± 0.15"}
{"variant": "A20W", "abundance fitness": "-0.534 ± 0.11"}
{"variant": "A20V", "abundance fitness": "-0.077 ± 0.045"}
{"variant": "A20Q", "abundance fitness": "-0.874 ± 0.21"}
{"variant": "H19G", "abundance fitness": "-0.205 ± 0.041"}
{"variant": "H19P", "abundance fitness": "-0.028 ± 0.042"}
{"variant": "H19S", "abundance fitness": "0.046 ± 0.037"}
{"variant": "H19W", "abundance fitness": "-0.001 ± 0.044"}
{"variant": "H19D", "abundance fitness": "0.205 ± 0.059"}
{"variant": "H19M", "abundance fitness": "0.122 ± 0.047"}
{"variant": "H19T", "abundance fitness": "0.041 ± 0.042"}
{"variant": "H19E", "abundance fitness": "0.136 ± 0.046"}
{"variant": "H19I", "abundance fitness": "0.009 ± 0.073"}
{"variant": "H19K", "abundance fitness": "-0.047 ± 0.056"}
{"variant": "H19R", "abundance fitness": "-0.049 ± 0.032"}
{"variant": "H19A", "abundance fitness": "0.11 ± 0.037"}
{"variant": "H19Q", "abundance fitness": "0.131 ± 0.047"}
{"variant": "H19C", "abundance fitness": "0.014 ± 0.058"}
{"variant": "H19Y", "abundance fitness": "0.038 ± 0.063"}
{"variant": "H19F", "abundance fitness": "0.247 ± 0.095"}
{"variant": "H19V", "abundance fitness": "-0.083 ± 0.046"}
{"variant": "H19N", "abundance fitness": "0.063 ± 0.065"}
